B1: library; numbered along this chain (parent)
chain: MRKPRAAVGSGHRKQAASQEGRQKHAKNNSQAKPSACDGLARQPEEVVLQASVSSYHLFRDVAEVTAFRGSLLSWYDQEKRDLPWRRRAEDEMDLDRRAYAVWVSEVMLQQTQVATVINYYTGWMQKWPTLQDLASASLEEVNQLWAGLGYYSRGRRLQEGARKVVEELGGHMPRTAETLQQLLPGVGRYTAGAIASIAFGQATGVVDGNVARVLCRVRAIGADPSSTLVSQQLWGLAQQLVDPARPGDFNQAAMELGATVCTPQRPLCSQCPVESLCRARQRVEQEQLLASGSLSGSPDVEECAPNTGQCHLCLPPSEPWDQTLGVVNFPRKASRKPPREESSATCVLEQPGALGAQILLVQRPNSGLLAGLWEFPSVTWEPSEQLQRKALLQELQRWAGPLPATHLRHLGEVVHTFSHIKLTYQVYGLALEGQTPVTTVPPGARWLTQEEFHTAAVSTAMKKVFRVYQGQQPGTCMGSKRSQVSSPCSRKKPRMGQQVLDNFFRSHISTDAHSLNSAAQ

Variants of: B1
Test: 8OG:A repair function score (normalized; synonymous = 0, nonsense = -1) (normalized log-likelihood score); higher = more repair activity (WT-like)
Details: with 8OG:A DNA repair reporter (GFP) in HEK-293 MUTYH KO cells
Procedure, shortened: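 Lentiviral MUTYH cDNA NNN codon-scan libraries were expressed in MUTYH knockout HEK-293 cells with 10 pg/ml doxycycline, and the cells received an 8OG:A GFP repair reporter together with mCherry. At 72 h, viable mCherry+ cells went into GFP+ (repair) or GFP− bins, three replicates per tile, before tile amplicons were sequenced. A repair function score was then built from per-tile Rosace fitness scores, anchored on the synonymous and nonsense distributions. Synonymous medians sat at 0 and nonsense at -1, and variants under 300 counts per million at the start were left out.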
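Also: cells sorted at 72 h after reporter transfection.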

Variant | 8OG:A repair function score
L215D | -0.968
P443C | -9.64e-05
V104H | -1.31
Q252K | -0.999
A41H | -0.0884
L423R | -0.232
S52W | -0.00265
L315T | -0.0895
N143P | -0.4
N143L | -0.0917
Q110S | -1.26
Q110G | 0.0252
Q113W | -0.172
T191V | -0.236
T191S | -0.16
C489N | 0.0265
C489D | 0.013
T436P | -0.0919
K333I | -0.0317
I221R | -0.972
G70A | -0.0222

Variant | 8OG:A repair function score
F466S | -0.715
Q159G | -0.279
A291N | 0.0139
A291G | -0.0909
V348H | -1.31
Y469R | -0.195
Y469S | -0.115
P317I | -0.0482
Y76H | -0.27
L411A | -0.00099
S296A | -0.0202
R163F | -0.174
L229I | -0.0293
G353R | -0.038
G353F | -0.0929
E375Y | -0.285
W103I | -1.17
A6Y | -0.0552
C278A | -1.11
C278E | -0.92
R175M | -0.155

Variant | 8OG:A repair function score
G293I | -0.0531
G293Q | -0.00725
V327E | -0.178
E168V | -0.0341
E341F | -0.0534
E341I | -0.0537
M93G | -0.0185
W235Q | -0.314
L289N | -0.057
V214D | -1.02
L408Y | -0.205
A101C | -0.00146
V107F | -0.314
G123S | 0.0793
A115Y | -0.206
I359N | -0.425
V465R | -1.13
T455V | -0.122
L373G | -0.502
Q472F | 0.018
S136I | -0.0848

Variant | 8OG:A repair function score
G248F | -0.958
G248E | -0.978
C477N | 0.0283
Q394W | -0.387
Y151I | -0.244
V114G | -0.449
G258Y | -1.23
V242L | -0.288
F250H | -0.485
Q450S | -0.114
P320M | -0.0571
E302P | -0.223
V102K | -1.71
V102C | -0.092
V211C | -0.265
P442H | 0.0816
E141D | -0.251
D77W | -0.0696
L95P | -0.00578
A135P | -0.477

Reference: the supplement of paper PMC11908140
